Measured values from patent US20150368338A1 (Janssen / Centocor, published 2015).

Key:
Assay in all cases: ProteOn SPR, cell supernatant;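 also: each binding measurement used just a single antigen concentration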
human IFN-ω = molecular target: T1, human IFN-ω (human, UniProt P05000 24-195)
T1 construct: Recombinant, HEK293; also called interferon omega

IFN-αC = molecular target: T2, IFN-αC (human, UniProt P01566 24-189)
T2 construct: Recombinant, HEK293; also called IFN-α10

IFN-αF = molecular target: T3, IFN-αF (human, UniProt P01568 24-189)
T3 construct: Recombinant, HEK293; also called IFN-α21
T3 chain: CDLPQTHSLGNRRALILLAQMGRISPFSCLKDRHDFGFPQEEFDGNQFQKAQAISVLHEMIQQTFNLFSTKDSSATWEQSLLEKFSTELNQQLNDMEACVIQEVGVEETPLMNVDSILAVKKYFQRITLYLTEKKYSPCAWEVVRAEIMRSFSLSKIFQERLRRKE

IFN-αJ1 = molecular target: T4, IFN-αJ1 (human, UniProt P01567 24-189)
T4 construct: Recombinant, HEK293; also called IFN-α7

IFN-α4a = molecular target: T5, IFN-α4a (human, UniProt P05014 24-189)
T5 construct: Recombinant, HEK293; also called IFN-αM1

IFN-αG = molecular target: T6, IFN-αG (human, UniProt P01569 24-189)
T6 construct: Recombinant, HEK293; also called IFN-α5

IFN-αWA = molecular target: T7, IFN-αWA (human, UniProt P05015 24-189)
T7 construct: Recombinant, HEK293; also called IFN-α16

Binder	Kd (human IFN-ω) [nM]	Kd (IFN-αC) [nM]	Kd (IFN-αF) [nM]	Kd (IFN-αJ1) [nM]	Kd (IFN-α4a) [nM]	Kd (IFN-αG) [nM]	Kd (IFN-αWA) [nM]
IFWM3384 (antibody, IgG1, V domains shown, mAb; IgG1/kappa said of the parent and of selected mAbs; also called IFWB3119) VH: EVQLVQSGAEVKKPGESLKISCKGSGYSFTSYWIGWVRQMPGKGLEWMGIIDPSDSDTRYSPSFQGQVTISADKSISTAYLQWSSLKASDTAMYYCARHPGLAWAPDFDYWGQGTLVTVSS VL: DIQMTQSPSSLSASVGDRVTITCRASQSITNFLNWYQQKPGKAPKLLIYFASSLQSGVPSRFSGSGSGTDFTLTISSLQPEDFATYYCQQSLDFPLTFGQGTKVEIK	0.026	0.029	0.033	0.068	0.077	0.022	0.017
IFWM3386 (antibody, IgG1, V domains shown, mAb; IgG1/kappa said of the parent and of selected mAbs; also called IFWB3121) VH: EVQLVQSGAEVKKPGESLKISCKGSGYSFTSYWIGWVRQMPGKGLEWMGIIDPSDSDTRYSPSFQGQVTISADKSISTAYLQWSSLKASDTAMYYCARHPGLAWAPDFDYWGQGTLVTVSS VL: DIQMTQSPSSLSASVGDRVTITCRASQSIAEFLNWYQQKPGKAPKLLIYFASSLQSGVPSRFSGSGSGTDFTLTISSLQPEDFATYYCQQSIDFPLTFGQGTKVEIK	0.026	0.031	0.029	0.087	0.103	0.026	0.035
IFWM3387 (antibody, IgG1, V domains shown, mAb; IgG1/kappa said of the parent and of selected mAbs; also called IFWB3122) VH: EVQLVQSGAEVKKPGESLKISCKGSGYSFTSYWIGWVRQMPGKGLEWMGIIDPSDSDTRYSPSFQGQVTISADKSISTAYLQWSSLKASDTAMYYCARHPGLAWAPDFDYWGQGTLVTVSS VL: DIQMTQSPSSLSASVGDRVTITCRASQSIGGFLNWYQQKPGKAPKLLIYFASSLQSGVPSRFSGSGSGTDFTLTISSLQPEDFATYYCQQSYSLPITFGQGTKVEIK	0.039	0.09	0.058	0.161	0.169	0.034	0.069
IFWM3388 (antibody, IgG1, V domains shown, mAb; IgG1/kappa said of the parent and of selected mAbs; also called IFWB3123) VH: EVQLVQSGAEVKKPGESLKISCKGSGYSFTSYWIGWVRQMPGKGLEWMGIIDPSDSDTRYSPSFQGQVTISADKSISTAYLQWSSLKASDTAMYYCARHPGLAWAPDFDYWGQGTLVTVSS VL: DIQMTQSPSSLSASVGDRVTITCRASQSIGKSLNWYQQKPGKAPKLLIYFASSLQSGVPSRFSGSGSGTDFTLTISSLQPEDFATYYCQQSYDFPLTFGQGTKVEIK	0.033	0.03	0.019	0.055	0.084	0.027	0.044
IFWM3393 (antibody, IgG1, V domains shown, mAb; IgG1/kappa said of the parent and of selected mAbs; also called IFWB3128) VH: EVQLVQSGAEVKKPGESLKISCKGSGYSFTSYWIGWVRQMPGKGLEWMGIIDPSDSDTRYSPSFQGQVTISADKSISTAYLQWSSLKASDTAMYYCARHPGLAWAPDFDYWGQGTLVTVSS VL: DIQMTQSPSSLSASVGDRVTITCRASQSITSSLNWYQQKPGKAPKLLIYFASSLQSGVPSRFSGSGSGTDFTLTISSLQPEDFATYYCQQSFDLPLTFGQGTKVEIK	0.057	0.049	0.041	0.096	0.166	0.064	0.078
IFWM3394 (antibody, IgG1, V domains shown, mAb; IgG1/kappa said of the parent and of selected mAbs; also called IFWB3129) VH: EVQLVQSGAEVKKPGESLKISCKGSGYSFTSYWIGWVRQMPGKGLEWMGIIDPSDSDTRYSPSFQGQVTISADKSISTAYLQWSSLKASDTAMYYCARHPGLAWAPDFDYWGQGTLVTVSS VL: DIQMTQSPSSLSASVGDRVTITCRASQSINEFLNWYQQKPGKAPKLLIYFASSLQSGVPSRFSGSGSGTDFTLTISSLQPEDFATYYCQQSYSTPLTFGQGTKVEIK	0.045	0.063	0.063	0.077	0.105	0.091	0.049
IFWM3397 (antibody, IgG1, V domains shown, mAb; IgG1/kappa said of the parent and of selected mAbs; also called IFWB3132) VH: EVQLVQSGAEVKKPGESLKISCKGSGYSFTSYWIGWVRQMPGKGLEWMGIIDPSDSDTRYSPSFQGQVTISADKSISTAYLQWSSLKASDTAMYYCARHPGLAWAPDFDYWGQGTLVTVSS VL: DIQMTQSPSSLSASVGDRVTITCRASQSITGFLNWYQQKPGKAPKLLIYAASSLQSGVPSRFSGSGSGTDFTLTISSLQPEDFATYYCQQSHDFPLTFGQGTKVEIK	0.025	0.027	0.028	0.078	0.119	0.043	0.062
IFWM3398 (antibody, IgG1, V domains shown, mAb; IgG1/kappa said of the parent and of selected mAbs; also called IFWB3133) VH: EVQLVQSGAEVKKPGESLKISCKGSGYSFTSYWIGWVRQMPGKGLEWMGIIDPSDSDTRYSPSFQGQVTISADKSISTAYLQWSSLKASDTAMYYCARHPGLAWAPDFDYWGQGTLVTVSS VL: DIQMTQSPSSLSASVGDRVTITCRASQSINGVLNWYQQKPGKAPKLLIYFASSLQSGVPSRFSGSGSGTDFTLTISSLQPEDFATYYCQQSHDFPLTFGQGTKVEIK	0.026	0.017	0.017	0.044	0.061	0.022	0.03

Stronger by Kd (human IFN-ω), values ahead:

Kd (human IFN-ω) [nM]	Kd (IFN-αC) [nM]	Kd (IFN-αF) [nM]	Kd (IFN-αJ1) [nM]	Kd (IFN-α4a) [nM]	Kd (IFN-αG) [nM]	Kd (IFN-αWA) [nM]	Binder
0.017	0.024	0.009	0.032	0.098	0.033	0.03	IFWM3389 (antibody, IgG1, V domains shown, mAb; IgG1/kappa said of the parent and of selected mAbs; also called IFWB3124) VH: EVQLVQSGAEVKKPGESLKISCKGSGYSFTSYWIGWVRQMPGKGLEWMGIIDPSDSDTRYSPSFQGQVTISADKSISTAYLQWSSLKASDTAMYYCARHPGLAWAPDFDYWGQGTLVTVSS VL: DIQMTQSPSSLSASVGDRVTITCRASQSIDDFLNWYQQKPGKAPKLLIYFASSLQSGVPSRFSGSGSGTDFTLTISSLQPEDFATYYCQQSHTLPLTFGQGTKVEIK
0.01	0.011	0.011	0.03	0.075	0.01	0.029	IFWM3390 (antibody, IgG1, V domains shown, mAb; IgG1/kappa said of the parent and of selected mAbs; also called IFWB3125) VH: EVQLVQSGAEVKKPGESLKISCKGSGYSFTSYWIGWVRQMPGKGLEWMGIIDPSDSDTRYSPSFQGQVTISADKSISTAYLQWSSLKASDTAMYYCARHPGLAWAPDFDYWGQGTLVTVSS VL: DIQMTQSPSSLSASVGDRVTITCRASQSIDGALNWYQQKPGKAPKLLIYFASSLQSGVPSRFSGSGSGTDFTLTISSLQPEDFATYYCQQSFDFPLTFGQGTKVEIK
0.023	0.016	0.025	0.066	0.117	0.044	0.042	IFWM3391 (antibody, IgG1, V domains shown, mAb; IgG1/kappa said of the parent and of selected mAbs; also called IFWB3126) VH: EVQLVQSGAEVKKPGESLKISCKGSGYSFTSYWIGWVRQMPGKGLEWMGIIDPSDSDTRYSPSFQGQVTISADKSISTAYLQWSSLKASDTAMYYCARHPGLAWAPDFDYWGQGTLVTVSS VL: DIQMTQSPSSLSASVGDRVTITCRASQSINNFLNWYQQKPGKAPKLLIYFASSLQSGVPSRFSGSGSGTDFTLTISSLQPEDFATYYCQQSFNLPITFGQGTKVEIK
0.023	0.016	0.014	0.021	0.058	0.019	0.025	IFWM3392 (antibody, IgG1, V domains shown, mAb; IgG1/kappa said of the parent and of selected mAbs; also called IFWB3127) VH: EVQLVQSGAEVKKPGESLKISCKGSGYSFTSYWIGWVRQMPGKGLEWMGIIDPSDSDTRYSPSFQGQVTISADKSISTAYLQWSSLKASDTAMYYCARHPGLAWAPDFDYWGQGTLVTVSS VL: DIQMTQSPSSLSASVGDRVTITCRASQSIDRALNWYQQKPGKAPKLLIYFASSLQSGVPSRFSGSGSGTDFTLTISSLQPEDFATYYCQQSFDFPLTFGQGTKVEIK
0.019	0.116	0.102	0.181	0.279	0.063	0.063	IFWM3395 (antibody, IgG1, V domains shown, mAb; IgG1/kappa said of the parent and of selected mAbs; also called IFWB3130) VH: EVQLVQSGAEVKKPGESLKISCKGSGYSFTSYWIGWVRQMPGKGLEWMGIIDPSDSDTRYSPSFQGQVTISADKSISTAYLQWSSLKASDTAMYYCARHPGLAWAPDFDYWGQGTLVTVSS VL: DIQMTQSPSSLSASVGDRVTITCRASQSISKFLNWYQQKPGKAPKLLIYFASSLQSGVPSRFSGSGSGTDFTLTISSLQPEDFATYYCQQSYDFPITFGQGTKVEIK
0.011	0.005	0.007	0.037	0.079	0.061	0.068	IFWM3396 (antibody, IgG1, V domains shown, mAb; IgG1/kappa said of the parent and of selected mAbs; also called IFWB3131) VH: EVQLVQSGAEVKKPGESLKISCKGSGYSFTSYWIGWVRQMPGKGLEWMGIIDPSDSDTRYSPSFQGQVTISADKSISTAYLQWSSLKASDTAMYYCARHPGLAWAPDFDYWGQGTLVTVSS VL: DIQMTQSPSSLSASVGDRVTITCRASQSISEYLNWYQQKPGKAPKLLIYFASSLQSGVPSRFSGSGSGTDFTLTISSLQPEDFATYYCQQSHSLPITFGQGTKVEIK
0.007	0.025	0.027	0.059	0.062	0.027	0.023	IFWM3403 (antibody, IgG1, V domains shown, mAb; IgG1/kappa said of the parent and of selected mAbs; also called IFWB3138) VH: EVQLVQSGAEVKKPGESLKISCKGSGYSFTSYWIGWVRQMPGKGLEWMGIIDPSDSDTRYSPSFQGQVTISADKSISTAYLQWSSLKASDTAMYYCARHPGLAWAPDFDYWGQGTLVTVSS VL: DIQMTQSPSSLSASVGDRVTITCRASQSIRNSLNWYQQKPGKAPKLLIKWASSLQSGVPSRFSGSGSGTDFTLTISSLQPEDFATYYCQQLYDWPLTFGQGTKVEIK
